Data published in patent publication US20210040232A1 (Regeneron, published 2021).

T1: soluble Macaca fascicularis CTLA-4 expressed with a C-terminal myc-myc-polyhistidine tag (Macaca fascicularis)
T1 construct: soluble protein; also called mf CTLA-4.mmh; mfCTLA4.mmh
T1 chain: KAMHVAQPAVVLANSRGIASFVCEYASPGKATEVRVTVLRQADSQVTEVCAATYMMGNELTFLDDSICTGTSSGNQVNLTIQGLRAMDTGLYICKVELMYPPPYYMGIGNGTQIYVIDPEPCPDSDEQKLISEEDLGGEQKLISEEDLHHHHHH

B1: H1H19313P (antibody, human IgG1, V domains shown)
VH: QITLKESGPTLVKPTQTLTLTCTFSGFSLSTSGVGVGWIRQPPGVALEWLALIYWNDDKRFSPSLKSRLTITKDTSKNQVVLTMTNMDPVDTATYYCAHRRLGLYYFDYWGQGTLVTVSS
VL: DIQLTQSPSFLSASVGDRVTITCWASQGISSYLAWYQQKPGKAPKLLIYAASTLQSGVPSRFSGSGSGTEFTLTISSLQPEDFATYYCQQVHIYPFTFGPGTKVDIK
B2: H1H19269P (antibody, human IgG1, V domains shown)
VH: EVQLVESGGGLVQPGGSLKLSCAASGFTFSGSAMHWVRQASGKGLEWVGRIRGKANSFATAYSASVKGRFTISRDDSKNTASLQMNSLRTEDTAVYFCTREDQQLVRPYYYHYGMDVWGQGTTVTVSS
VL: DIQMTQSPSSLSASVGDRVTITCRTSQSITNYLNWYQQKPGKAPKLLIYATASLQSGVPSRFSGSGSETDFTLTISSLQPEDFATYYCQQSYSTPLTFGGGTKVEIK
B3: H1H19303P (antibody, human IgG1, kappa, V domains shown)
VH: EVQLVESGGGLVQPGGSLRLSCAASGFTFSNYEMSWVRQAPGKGLEWVSSIRTSGTTKYYADSMKGRFTISRDNAKNSLYLQMNSLRAEDTAVYYCAGGGTFLHYWGQGTLVTVSS
VL: DIQMTQSPSSVSASVGDRVTITCRASQGIASYLAWYQQKPGKAPKLLIYAASSLQTGVPSRFSGSGYGTDFTLTISSLQPEDFATYYCQQAKSFPMYTFGQGTKLEIKR
notes: also called REGN4659
B4: H1H19291P (antibody, human IgG1, V domains shown)
VH: QVQLVESGGGVVQPGRSLRLSCAASGFTFSTYGMHWVRQAPGKGLEWVTVIWYDGNNKYYADSVKGRFTISRDNSKNTLYLQMNNLRAEDTALYYCARGGGRLSYYHDYWGQGTLVTVSS
VL: DIQMTQSPSSLSASVGDRVTITCRASQSISTFLNWYQQKPGKAPNLLIYGTSSLQSGVPSRFSGSGSGTDFTLTISSLQPEDFAAYYCQQTYSTPFTFGPGTKVDIK
B5: H1H19319P2 (antibody, human IgG1, V domains shown)
VH: QVQLVESGGGEVQPGRSLRLSCAASGFTFSSYGMHWVRQAPGKGLEWVAVIWYDGRNKHYVDSVKGRFTISRDNSKNTVYLQMNSLRAEDSAVYYCVRGGQLGAFDYWGQGTLVTVSS
VL: not shown
B6: H1H19273P (antibody, human IgG1, V domains shown)
VH: QITLKESGPTLVKPTQTLTLTCTFSGFSLSTSGVGVGWIRQSPGRALEWLALIYWNDHERYSPSLKSRLTITKDTSKNLVVLAMANMDPVDTATYFCAHRNIEYRRSYFFDYWGQGTLVTVSS
VL: DIQMTQSPSSVSASVRDRVTVTCRASQDINNWLAWYQQKPGKAPKLLIYAASSLQSGVPSRFSGSGSGTDFTLTISSLQPEDFATYYCQQANTFPFTFGPGTKVDIK
B7: H1H19327P2 (antibody, human IgG1, V domains shown)
VH: QVQLVESGGGVVQPGRSLRLSCAASGFTSSSYGIHWVRQAPGKGLEWVAVIWYDGSNKYYADSVKGRFTISRDNSKNTLYLQMNSLRAEDTAVYYCARGGPWGAFDIWGQGTMVTVSS
VL: not shown

Columns and labels:
[1] = target: T2, recombinant hCTLA-4-mFc (human CTLA-4 extracellular domain with a C-terminal Fc portion of mouse IgG2a) (human); assay: competition ELISA, 200 pM hCTLA-4-mFc on plate-coated hB7-1-hIgG1-6His
T2 construct: also called dimeric CTLA-4 protein
T2 sequence (chain, as listed by the source limits assumed): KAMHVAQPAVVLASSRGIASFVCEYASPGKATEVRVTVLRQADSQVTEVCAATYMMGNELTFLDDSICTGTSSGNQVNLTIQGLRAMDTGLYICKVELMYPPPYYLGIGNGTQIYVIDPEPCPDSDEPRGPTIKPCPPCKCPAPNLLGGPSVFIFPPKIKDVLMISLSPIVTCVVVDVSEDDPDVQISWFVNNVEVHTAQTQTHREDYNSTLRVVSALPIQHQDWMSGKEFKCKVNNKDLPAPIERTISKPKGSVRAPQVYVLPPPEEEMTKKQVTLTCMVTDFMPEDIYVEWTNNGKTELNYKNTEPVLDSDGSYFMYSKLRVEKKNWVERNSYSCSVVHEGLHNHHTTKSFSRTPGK

[2] = target: T3, hCTLA-4 extracellular domain (aa 1-161) fused to the trans-membrane and cytoplasmic domain of hCD300a (aa … (human, UniProt Q9UGN4 181-299)); assay: ECL cell binding, Jurkat/NFAT-Luc/hCTLA-4-hCD300a cells
T3 construct: range 181-299; the range as stated begins at residue 1 and so holds the signal peptide; also called Jurkat/NFAT-Luc/hCTLA-4-hCD300a; hCTLA-4/hCD300 chimera
T3 sequence (Q9UGN4 other isoform, or with tags, fused parts or gaps limits assumed, form in doubt): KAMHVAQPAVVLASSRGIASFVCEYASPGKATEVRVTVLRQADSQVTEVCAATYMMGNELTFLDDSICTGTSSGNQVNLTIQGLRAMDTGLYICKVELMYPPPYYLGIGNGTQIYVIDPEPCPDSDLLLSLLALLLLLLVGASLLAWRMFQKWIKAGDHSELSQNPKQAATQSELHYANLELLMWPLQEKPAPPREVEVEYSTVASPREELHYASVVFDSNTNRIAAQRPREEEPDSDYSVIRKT

[3] = target: T2, recombinant hCTLA-4-mFc (human CTLA-4 …); assay: competition ELISA, 400 pM hCTLA-4-mFc on plate-coated hB7-2-hIgG1-6His
[4] = target: T3, hCTLA-4 extracellular domain (aa 1-161) …; assay: cell-based or functional assay
[5] = target: T1, soluble Macaca fascicularis CTLA-4 …; assay: SPR, mAb capture, 25 C
[6] = target: T4, soluble human CTLA-4 expressed with a C-terminal myc-myc-polyhistidine tag (human); assay: SPR, mAb capture, 25 C
T4 construct: soluble protein; also called hCTLA-4.mmh; hCTLA4.mmh

[7] = target: T5, human CTLA-4 (amino acids M1-N223) on stably transfected VI-fibroblast cells (human, UniProt P16410 36-223); assay: ECL cell binding, VI-fibroblast/hCTLA-4 cells;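 note: antibodies bound to the cells on carbon electrode plates, detected via SULFO-TAG anti-IgG secondary (1 h, RT), electrochemiluminescence read as RLU over a concentration range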
T5 construct: also called VI-fibroblast/hCTLA-4
T5 sequence (P16410 36-223 limits assumed): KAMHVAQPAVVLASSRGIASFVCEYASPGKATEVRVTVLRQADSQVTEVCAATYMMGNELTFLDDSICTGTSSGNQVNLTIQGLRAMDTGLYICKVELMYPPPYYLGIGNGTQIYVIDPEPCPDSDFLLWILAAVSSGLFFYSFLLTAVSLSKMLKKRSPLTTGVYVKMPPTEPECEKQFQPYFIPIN

[8] = target: T3, hCTLA-4 extracellular domain (aa 1-161) …; assay: cell-based or functional assay; remark: listed apart in the source
[9] = target: T2, recombinant hCTLA-4-mFc (human CTLA-4 …); assay: competition ELISA, 400 pM hCTLA-4-mFc on plate-coated hB7-2-hIgG1-6His; * value below theoretical bottom of assay
[10] = target: mf CTLA-4 extracellular domain (aa 1-161) fused to the trans-membrane and cytoplasmic domain of hCD300a (aa … (Macaca fascicularis; human, UniProt G7PL88 1-161; Q9UGN4 181-299); assay: cell-based or functional assay

Binder	% Blockade [1] [%]	IC50 [1] [nM]	EC50 [2] [nM]	% Blockade [3] [%]	IC50 [3] [nM]	EC50, T-cell/APC NFAT-luciferase assay, +Fc Block [4] [nM]	EC50, T-cell/APC NFAT-luciferase assay, -Fc Block [4] [nM]	Kd [5] [nM]	koff [5] [s⁻¹]	kon [5] [M⁻¹ s⁻¹]	t1/2 [5] [min]	Kd [6] [nM]	koff [6] [s⁻¹]	kon [6] [M⁻¹ s⁻¹]	t1/2 [6] [min]	EC50 [7] [nM]	ratio of RLU signal to parental VI-fibroblast at 0.4 nM Ab [7] [ratio]	EC50, T-cell/APC IL-2 release assay, APC HEK293/hCD20/hCD80 [8] [nM]	Fold induction of IL-2 at 100 nM, APC HEK293/hCD20/hCD80 [8] [fold]	also measured
B1	98	0.4	0.11	99	0.77	3.47	1.69	0.976	0.000464	475000	24.9	1.55	0.000758	489000	15.2	0.16	11	21.9	5.7	–
B2	98	0.1	–	100	–	–	–	1.22	0.000435	356000	26.6	1.2	0.000474	394000	24.4	0.4	15	–	–	IC50 [9]: 0.19 nM
B3	90	180	0.29	97	39	1.73	1.61	15.7	0.00245	156000	4.7	16.4	0.00199	121000	5.8	0.21	20	40.9	5.4	–
B4	98	2	–	99	2.5	3.92	2.36	13	0.00121	93100	9.6	13.8	0.00123	88800	9.4	–	5	–	–	EC50, T-cell/APC NFAT-luciferase assay, +Fc Block [10]: 7.67 nM
B5	85	320	0.28	97	43	4.18	2.47	12.9	–	–	4.4	10.2	–	–	7.9	0.24	–	–	–	–
B6	98	0.25	0.52	98	0.54	3.83	2.74	0.956	0.000346	362000	33.4	0.966	0.000362	374000	31.9	–	11	33.3	5.1	–
B7	7	–	–	38	–	5.49	4.2	62.4	0.0117	188000	1	66.3	0.000585	8810	19.8	0.29	16	–	–	EC50, T-cell/APC NFAT-luciferase assay, +Fc Block [10]: 5.76 nM
